Source: doi:10.1101/2020.10.15.341636 (bioRxiv, 2020)

Key:
[1] = target: T1, SARS-CoV-2 prefusion S ectodomain (BEI NR52394) (SARS-CoV-2 Wuhan-Hu-1, UniProt P0DTC2, stabilised); assay: cell-based or functional assay
[2] = target: T1, SARS-CoV-2 prefusion S ectodomain (BEI …); assay: BLI
[3] = target: T1, SARS-CoV-2 prefusion S ectodomain (BEI …); assay: cryo-EM structure

| Binder | binding result [2] | other results |
| --- | --- | --- |
| mAb 298 IgG (antibody, V domains shown) VH: QVQLVQSGAEVKKPGASVKVSCKASGGTFSTYGISWVRQAPGQGLEWMGWISPNSGGTDLAQKFQGRVTMTRDTSTSTVYMELSSLRSEDTAVYYCASDPRDDIAGGYWGQGTLVTVSS VL: not shown |  | IC50 of neutralization of SARS-CoV-2 pseudovirus (PsV) [1]: ~30 µg/mL |
| mAb 324 IgG (antibody, V domains shown) VH: QVQLVQSGAEVKKPGASVKVSCKASGGTFNNYGISWVRQAPGQGLEWMGWMNPNSGNTGYAQKFQGRVTMTRDTSTSTVYMELSSLRSEDTAVYYCARVGDYGDYIVSPFDLWGRGTLVTVSS VL: DIQMTQSPSSLSASVGDRVTITCRASQSITTYLNWYQQKPGKAPKLLIYDASNLETGVPSRFSGSGSGTDFTLTISSLQPEDFATYYCQQSYSTPPTFGQGTKVEIK | binds |  |
| Fab 324 (Fab, V domains shown) VH: QVQLVQSGAEVKKPGASVKVSCKASGGTFNNYGISWVRQAPGQGLEWMGWMNPNSGNTGYAQKFQGRVTMTRDTSTSTVYMELSSLRSEDTAVYYCARVGDYGDYIVSPFDLWGRGTLVTVSS VL: DIQMTQSPSSLSASVGDRVTITCRASQSITTYLNWYQQKPGKAPKLLIYDASNLETGVPSRFSGSGSGTDFTLTISSLQPEDFATYYCQQSYSTPPTFGQGTKVEIK |  | binding result [3]: binds |
| 324 Multabody (other) VH: QVQLVQSGAEVKKPGASVKVSCKASGGTFNNYGISWVRQAPGQGLEWMGWMNPNSGNTGYAQKFQGRVTMTRDTSTSTVYMELSSLRSEDTAVYYCARVGDYGDYIVSPFDLWGRGTLVTVSS VL: DIQMTQSPSSLSASVGDRVTITCRASQSITTYLNWYQQKPGKAPKLLIYDASNLETGVPSRFSGSGSGTDFTLTISSLQPEDFATYYCQQSYSTPPTFGQGTKVEIK | binds |  |
| mAb 236 IgG (antibody, V domains shown) VH: QVQLVQSGAEVKKPGASVKVSCKASGGTFTSYGINWVRQAPGQGLEWMGWMNPNSGNTGYAQKFQGRVTMTRDTSTSTVYMELSSLRSEDTAVYYCASRGIQLLPRGMDVWGQGTTVTVSS VL: not shown | binds |  |
| mAb 52 IgG (antibody, V domains shown) VH: QVQLVQSGAEVKKPGSSVKVSCKASGYTFTSYGISWVRQAPGQGLEWMGGIIPMFGTTNYAQKFQGRVTITADKSTSTAYMELSSLRSEDTAVYYCARDRGDTIDYWGQGTLVTVSS VL: DIQMTQSPSSLSASVGDRVTITCRASQGISNNLNWYQQKPGKAPKLLIYAASSLESGVPSRFSGSGSGTDFTLTISSLQPEDFATYYCQQGNGFPLTFGPGTKVDIK | binds |  |
| 52 Multabody (other) VH: QVQLVQSGAEVKKPGSSVKVSCKASGYTFTSYGISWVRQAPGQGLEWMGGIIPMFGTTNYAQKFQGRVTITADKSTSTAYMELSSLRSEDTAVYYCARDRGDTIDYWGQGTLVTVSS VL: DIQMTQSPSSLSASVGDRVTITCRASQGISNNLNWYQQKPGKAPKLLIYAASSLESGVPSRFSGSGSGTDFTLTISSLQPEDFATYYCQQGNGFPLTFGPGTKVDIK | binds |  |
